Reference: patent publication US7163815B2, “Methods and compositions for NAD(P)(H) oxidases” (Georgia Tech Research Corporation, priority 2002, dated 2007)
Entries after “also recorded” stand apart in the source; their conditions may differ.

Assays:
[1] = system: L. brevis (R)-ADH, G37D mutant; conditions: in comparison with the wildtype for NADP^+; cited from earlier work
[2] = molecular target: Borrelia burgdorferi NADH oxidase BNOX (BNOXK6; SEQ ID NOs 8, 10 and 12) (Borreliella burgdorferi, UniProt O51670, E220G/N174S); assay: Kinetics of cofactor substrates, BNOX (change of absorbance at 340 nm); assay type: biochemical; conditions: pH 7.0, 30° C., comparable degree of purity to SFNOX
Experimental: (§1) The kinetic analysis was performed on ammonium sulfate fractions from both the sfnox and bnox strains in 50 mM HEPES buffer pH 7.0 at 30° C. The initial enzyme fractions were diluted in 25 mM HEPES pH 7.0 at 30° C.+25% glycerol+5 mM DTT to approximately −0.05 A340 nm/min and retained on ice during analysis. Conversion of NAD(P)H was followed by change of absorbance at 340 nm in a Jasco V-530 spectrophotometer. 3 mL methylacrylate disposable cuvettes were used for all experiments and all runs were performed in triplicate at 30° C. Reactions with NADH were started by adding 3 μL of enzyme preparation, 9 μL for NADPH, to the cuvette and mixing by inversion with parafilm three times. Varying concentrations of NAD(P)H substrate were made my preparing 100 mL of a 300 μM solution in a volumetric flask. Dilutions of this solution were then made to provide the differing substrate concentrations for the kinetic profile.
(§2) Investigation of kinetic parameters with NADH and NADPH cofactors as substrates was performed with the supernatant of the 45% ammonium sulfate cut (40% for BNOXK6) in air-saturated solution at 30° C. and pH 7.0 in 0.1 M HEPES buffer. […] Chi values and error bars reveal high accuracy with <10% error in most cases.

[3] = system: NC(=O)C1=CN([C@@H]2O[C@H](COP(=O)(O)OP(=O)(O)OC[C@H]3O[C@@H](n4cnc5c(N)ncnc54)[C@H](O)[C@@H]3O)[C@@H](O)[C@H]2O)C=CC1; assay: as above; assay type: biochemical, Borrelia burgdorferi; conditions: other: BNOX, pH 7.0, 30° C., HEPES buffer, air-saturated solution, 40% ammonium sulfate cut for BNOXK6
Experimental: as §1, §2

[4] = Nox activity assay (NADH oxidation at 340 nm); assay type: biochemical; conditions: overexpressed in E. coli
Experimental: Nox activity assay: Cell-free extracts of the recombinant sfnox and bnox E. coli strains were prepared using ultrasonication described above in 0.1 M TEA pH 7.5+5 mM DTT or β-mercaptoethanol. Nox activities were assayed at 30° C. in a total volume of 1 mL at 340 nm using the following conditions: in 0.1 M TEA pH 7.5 a final concentration of 0.2 mM NADH was dissolved and 10 μl enzyme solution was added. Enzyme reaction was followed for 1 min, activity was calculated using an extinction coefficient ε of NADH of […].

[5] = Kinetics of cofactor substrates, NADPH; assay type: biochemical; conditions: pH 7.0, 30° C.
Experimental: as §1, §2

[6] = Hydrogen peroxide assay (Amplex Red / resorufin fluorescence); assay type: biochemical; conditions: upon conversion of 300 μM NADH
Experimental: With its detection limit of 100 nM, the test based on 9-acetyl-resorufin (“Amplex Red”) is much more sensitive than the other assays mentioned. Horseradish peroxidase (HRP)-catalyzed oxidation of 9-acetyl resorufin (“Amplex Red”) to fluorescent resorufin was the assay. Amplex Red reacts with H2O2 according to a strict 1:1 stoichiometry. The resorufin assay (λmax: 587 nm (emission), ε=54,000 L(mol-cm)^−1) with its extremely low detection limit of 100 nM resorufin product is much more sensitive than other assays, such as ABTS or o-dianisidine..
For the sensitive assay of putative hydrogen peroxide formation during the reaction of NADH oxidase the horseradish peroxidase-catalyzed oxidation of 9-acetyl resorufin was employed. The Amplex Red hydrogen peroxide assay kit (A-22188) from molecular probes was utilized for these assays. Following the protocols outlined in the kit instructions, a standard curve of H2O2 was prepared in the reaction buffer (50 mM sodium phosphate buffer pH 7.4) from the peroxide stock. The prepared concentrations were 20, 10, 5, and 2.5 μM H2O2 and 0 as a control. A working solution of 100 μM Amplex Red reagent and 0.2 U/ml horseradish peroxidase (HRP) was prepared in the reaction buffer as per kit instructions. As NADH and other reducing reagents are known to interfere with the amplex red assay, the NADH oxidase enzymes were allowed to react with the substrate immediately prior to the Amplex Red analysis. Reaction buffer from the kit was utilized in running enzyme test with 300 μM NADH as well as the controls without NADH. The enzyme conversions were performed by adding 3 μl of enzyme prep to 3 ml of reaction buffer with 300 μM NADH, mixing, and following the conversion until completion by absorbance at 340 nm. 50 μl of the final reaction mixture and standard curve solutions were added to each well in a 96 well fluorescence plate (costar, black, pp). Five replicates were made per sample and standard curve point. […] Fluorescence readings were performed in a BMG FLUOstar Galaxy micro plate reader with 544ex/590em filter settings.

Activity-pH profile = assay type: biochemical
Experimental: With the supernatant of the 45% ammonium sulfate cut, an activity—pH profile was measured for SFNOX (FIG. 4). The pH optimum of activity was found at pH 5.2. Below pH 5, activity decreased markedly and reached zero at pH 4.5. Rates at pH 4.5 to 5.2 are reported as net rates, with the chemical decomposition rate at low pH subtracted. […] The sharp activity decline between pH 5.2 and 6.0 coincides with the enzyme's pI, calculated to be pH 5.4.
The pH profile was performed on ammonium sulfate fractions from the sfnoxK2. 100 mM buffer solutions at 30° C. and 200 μM NADH were used for activity analysis as monitored by absorbance at 340 nm. All samples were tested in triplicate in 3 mL methylacrylate disposable cuvettes. The following buffers were utilized within the buffering range of 1 pH unit from their pKa: acetate, N-methylpiperazine, MES (2-[N-morpholino]ethanesulfonic acid hydrate), and bis-tris-propane. Sodium hydroxide or hydrochloric acid were used in preparation of the respective buffers.

For `NC(=O)c1ccc[n+]([C@@H]2O[C@H](COP(=O)([O-])OP(=O)(O)OC[C@H]3O[C@@H](n4cnc5c(N)ncnc54)[C@H](O)[C@@H]3O)[C@@H](O)[C@H]2O)c1` [NAD^+], the “KM-value for NAD^+” value [1] is listed as “very high”.

With `NC(=O)C1=CN([C@@H]2O[C@H](COP(=O)(O)OP(=O)(O)OC[C@H]3O[C@@H](n4cnc5c(N)ncnc54)[C@H](O)[C@@H]3O)[C@@H](O)[C@H]2O)C=CC1` [NADH] the vmax [2] was 2.03 U/mg.

Work on “Borrelia burgdorferi NADH oxidase BNOX (BNOXK6; SEQ ID NOs 8, 10 and 12) (Borreliella burgdorferi B31; E220G/N174S)” yielded a Km [3] of 22.0 µM.

B1: SFNOXK2: sequenced SFNOX clone with alanine to valine change at position 30 (A30V), SEQ ID 4 (protein)
chain: MKVIVVGCTHAGTFAVKQTIADHPDADVTVYEMNDNISFLSCGIALYLGKEIKNNDPRGLFYSSPEELSNLGANVQMRHQVTNVDPETKTIKVKDLITNEEKTEAYDKLIMTTGSKPTVPPIPGIDSSRVYLCKNYNDAKKLFEEAPKAKTITIIGSGYIGAELAEAYSNQNYNVNLIDGHERVLYKYFDKEFTDILAKDYEAHGVNLVLGSKVAAFEEVDDEIITKTLDGKEIKSDIAILCIGFRPNTELLKGKVAMLDNGAIITDEYMHSSNRDIFAAGDSAAVHYNPTNSNAYIPLATNAVRQGRLVGLNLTEDKVKDMGTQSSSGLKLYGRTYVSTGINTALAKANNLKVSEVIIADNYRPEFMLSTDEVLMSLVYDPKTRVILGGALSSMHDVSQSANVLSVCIQNKNTIDDLAMVDMLFQPQFDRPFNYLNILGQAAQAQADKAHK
In the case of B1, the “activity of the overexpressed constructs” value [4] is reported as “comparable activity”.

B2: SFNOXK6: sequenced SFNOX clone with A30V and lysine to arginine at position 102 (K102R), SEQ ID NO 6 (protein)
chain: MKVIVVGCTHAGTFAVKQTIADHPDADVTVYEMNDNISFLSCGIALYLGKEIKNNDPRGLFYSSPEELSNLGANVQMRHQVTNVDPETKTIKVKDLITNEERTEAYDKLIMTTGSKPTVPPIPGIDSSRVYLCKNYNDAKKLFEEAPKAKTITIIGSGYIGAELAEAYSNQNYNVNLIDGHERVLYKYFDKEFTDILAKDYEAHGVNLVLGSKVAAFEEVDDEIITKTLDGKEIKSDIAILCIGFRPNTGLLKGKVAMLDNGAIITDEYMHSSNRDIFAAGDSAAVHYNPTNSNAYIPLATNAVRQGRLVGLNLTEDKVKDMGTQSSSGLKLYGRTYVSTGINTALAKANNLKVSEVIIADNYRPEFMLSTDEVLMSLVYDPKTRVILGGALSSMHDVSQSANVLSVCIQNKNTIDDLAMVDMLFQPQFDRPFNYLNILGQAAQAQADKAHK
For B2, the “activity of the overexpressed constructs” value [4] was “comparable activity”.

B3: SFNOX: NAD(P)H oxidase isolated from Lactobacillus sanfranciscensis, SEQ ID NO 2; oxidizes NADH and NADPH, reduces oxygen to water (protein)
chain: MKVIVVGCTHAGTFAVKQTIADHPDADVTAYEMNDNISFLSCGIALYLGKEIKNNDPRGLFYSSPEELSNLGANVQMRHQVTNVDPETKTIKVKDLITNEEKTEAYDKLIMTTGSKPTVPPIPGIDSSRVYLCKNYNDAKKLFEEAPKAKTITIIGSGYIGAELAEAYSNQNYNVNLIDGHERVLYKYFDKEFTDILAKDYEAHGVNLVLGSKVAAFEEVDDEIITKTLDGKEIKSDIAILCIGFRPNTELLKGKVAMLDNGAIITDEYMHSSNRDIFAAGDSAAVHYNPTNSNAYIPLATNAVRQGRLVGLNLTEDKVKDMGTQSSSGLKLYGRTYVSTGINTALAKANNLKVSEVIIADNYRPEFMLSTDEVLMSLVYDPKTRVILGGALSSMHDVSQSANVLSVCIQNKNTIDDLAMVDMLFQPQFDRPFNYLNILGQAAQAQADKAHK
In the case of B3, the “acceptance of NADPH as a substrate” value [5] is reported as “accept NADPH as a substrate with good reactivity”, the “activity with NADPH relative to activity towards NADH” value ([5]; ratio of vmax) is reported as “about 30%” and the H2O2 yield [6] is reported as 0.2%. For the same molecule, the “resorufin above background (equal concentration of H2O2 formed)” value [6] was 0.6 µM, the “pH of the minimum of the bimodal activity-pH curve” value (Activity-pH profile; 200 μM NADH, 30° C.) was ~5.5 and the “pH optimum of activity” value (Activity-pH profile; 200 μM NADH, 30° C., supernatant of 45% ammonium sulfate cut) was 5.2. For the same molecule, the “activity at pH 4.5” value (Activity-pH profile; pH 4.5, net rate) was “zero” and the “activity at pH 5.5” value (Activity-pH profile; pH 5.5) was “instantaneously lose activity”.

B4: BNOX: NADH oxidase from Borrelia burgdorferi, SEQ ID NO 8; reacts with NADH only (protein)
chain: MMKIIIIGGTSAGTSAAAKANRLNKKLDITIYEKTNIVSFGTCGLPYFVGGFFDNPNTMISRTQEEFEKTGISVKTNHEVIKVDAKNNTIVIKNQKTGTIFNNTYDQLMIATGAKPIIPPINNINLENFHTLKNLEDGQKIKKLMDREEIKNIVIIGGGYIGIEMVEAAKNKRKNVRLIQLDKHILIDSFDEEIVTIMEEELTKKGVNLHTNEFVKSLIGEKKAEGVVTNKNTYQADAVILATGIKPDTEFLENQLKTTKNGAIIVNEYGETSIKNIFSAGDCATIYNIVSKKNEYIPLATTANKLGRIVGENLAGNHTAFKGTLGSASIKILSLEAARTGLTEKDAKKLQIKYKTIFVKDKNHTNYYPGQEDLYIKLIYEENTKIILGAQAIGKNGAVIRIHALSIAIYSKLTTKELGMMDFSYSPPFSRTWDILNIAGNAAK
For B4, the “acceptance of NADPH as a substrate” value [5] was “does not accept NADPH as a substrate; also recorded: only accepts NADH” and the “resorufin above background (equal concentration of H2O2 formed)” value [6] was “could not detect any resorufin above background”.
